From patent US6635738

Legend:
[1] = target: IL-1β in PC12 cell cultures; assay: cell-based or functional assay
[2] = target: IL-1 receptor on PC12 cells; assay: cell-based or functional assay
[3] = target: Recombinant human pro-IL-1β, P01584
Recombinant human pro-IL-1β, P01584, sequence (P01584 whole entry, looked up): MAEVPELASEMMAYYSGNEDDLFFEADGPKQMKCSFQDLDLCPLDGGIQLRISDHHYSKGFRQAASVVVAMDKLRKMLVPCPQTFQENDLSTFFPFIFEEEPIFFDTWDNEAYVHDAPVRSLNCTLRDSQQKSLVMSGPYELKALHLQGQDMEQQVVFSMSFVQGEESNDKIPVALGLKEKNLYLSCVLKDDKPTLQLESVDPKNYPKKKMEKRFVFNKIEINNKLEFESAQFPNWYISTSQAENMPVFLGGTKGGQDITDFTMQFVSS

Blocking monoclonal hamster anti-mouse IL-1β antibody (Genzyme)
suppression of death of V-ASOD1 treated (SOD1 deficient) PC12 cells; antibody concentration used [1]: 30 µg/mL

IL-1 receptor antagonist (rmIL-1Ra) (from UniProt P25085 27-178) (ligand)
suppression of death of V-ASOD1 treated (SOD1 deficient) PC12 cells; antagonist concentration used [2]: 100 ng/mL

B1: Recombinant human ICE (interleukin 1β converting enzyme) (protein)
chain: NPAMPTSSGSEGNVKLCSLEEAQRIWKQKSAEIYPIMDKSSRTRLALIICNEEFDSIPRRTGAEVDITGMTMLLQNLGYSVDVKKNLTASDMTTELEAFAHRPEHKTSDSTFLVFMSHGIREGICGKKHSEQVPDILQLNAIFNMLNTKNCPSLKDKPKVIIIQACRGDSPGVVWFKDSVGVSGNLSLPTTEEFEDDAIKKAHIEKDFIAFCSSTPDNVSWRHPTMGSVFIGRLIEHMQEYACSCDVEEIFRKVRFSFEQPDGRAQMPTTERVTLTRCFYLFPGH
cleavage of pro-IL-1β by ICE in vitro (SDS-PAGE and immunoblot) [3]: There is some cleavage in the presence of the inhibitor but much less than seen with ICE alone
